Reference: patent US20150352207A1, “USE OF ANTIBODIES AGAINST ICAM-1 IN COMBINATION WITH AN ANTI CANCER DRUG IN THE TREATMENT OF PATIENTS” (BIOINVENT INTERNATIONAL AB, priority 2013, published 2015)
Entries after “also recorded” stand apart in the source; their conditions may differ. Like-named read-outs stand apart in the source and are kept apart here.

Assays:
Daudi cells = assay: Subcutaneous scid/Daudi non-Hodgkin lymphoma xenograft; type: in vivo, scid mice; details: twice weekly i.p. from day 1
RPMI-8226 myeloma cells = assay: Subcutaneous scid myeloma xenograft, RPMI-8226; type: in vivo, scid mice; details: 2 mg/kg twice weekly
Protocol: (§1) Antibody treatment with 2 mg/kg B11 or control IgG1 was started at Day 1 and was continued on a twice-weekly intraperitoneal dosing regimen. Mice were sacrificed when tumor sizes reached the ethical limit.

NCI-H929 myeloma cells = assay: Subcutaneous scid myeloma xenograft, NCI-H929; type: in vivo, scid mice; details: 2 mg/kg twice weekly
Protocol: as §1

OPM-2 myeloma cells = assay: Subcutaneous scid myeloma xenograft, OPM-2 (ICAM-1 negative); type: in vivo, scid mice; details: 2 mg/kg twice weekly
Protocol: as §1

mouse FcγRIV = molecular target: T1, mouse FcγRIV (Mus musculus, UniProt A0A0B4J1G0); assay: B11 isotype variant binding to FcγR (Biacore), mouse FcγRIV
T1 construct: made in house; host or cells: HEK293E (transient, adherent)
T1 sequence (A0A0B4J1G0 21-249): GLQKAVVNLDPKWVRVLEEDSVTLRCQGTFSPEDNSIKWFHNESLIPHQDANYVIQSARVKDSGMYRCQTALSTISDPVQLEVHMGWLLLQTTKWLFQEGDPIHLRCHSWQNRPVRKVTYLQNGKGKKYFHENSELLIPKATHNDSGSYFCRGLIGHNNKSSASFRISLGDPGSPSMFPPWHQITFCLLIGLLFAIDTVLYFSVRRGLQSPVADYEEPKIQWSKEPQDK
Protocol: (§2) His-tagged human FcγRIIIa or mouse FcγRIV were expressed transient in adherent HEK293E cells, purified using Ni-NTA chromatography and characterized using SDS-PAGE and/or Biacore. Surface plasmon resonance (SPR) measurements were performed using a Biacore 3000 instrument. Goat α-human-F(ab)′2 F(ab)′2 fragment (Jackson laboratories) was immobilised with a CM-5 chip using a standard amine coupling protocol. IgG1 B11, IgG4 B11, or 297Q B11 were diluted to 15 and 60 μg/mL respectively and added to the surface at […] for 3 min. His tagged human FcγRIIIa or mouse FcγRIV were pre-incubated with an α-HIS antibody (R&D Systems) at a 2:1 molar ratio before addition to the chip surface, 30 μL/min, 1 min. After each cycle the surface was regenerated twice with glycine buffer pH 1.7.

human FcγRIIIa = molecular target: T2, human FcγRIIIa (Homo sapiens, UniProt P08637); assay: B11 isotype variant binding to FcγR (Biacore), human FcγRIIIa
T2 construct: made in house; host or cells: HEK293E (transient, adherent)
T2 sequence (P08637 17-254): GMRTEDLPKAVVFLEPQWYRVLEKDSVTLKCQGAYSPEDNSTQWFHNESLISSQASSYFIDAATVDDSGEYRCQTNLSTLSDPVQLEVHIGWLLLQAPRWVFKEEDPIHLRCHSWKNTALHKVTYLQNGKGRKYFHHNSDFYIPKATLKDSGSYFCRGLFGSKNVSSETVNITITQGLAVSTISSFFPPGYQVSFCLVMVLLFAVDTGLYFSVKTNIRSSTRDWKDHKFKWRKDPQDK
Protocol: as §2

[1] = tested on: B lymphoma cell line (CL-01); assay: Antibody-dependent cell-mediated cytotoxicity (ADCC) with natural killer effector cells; type: cell-based; details: human Natural Killer effector cells
Text: Buffy coats from human donors (ordered through Blodcentralen, Lund) were used to isolate peripheral blood mononuclear cells (PBMCs), and subsequently NK cells. Briefly, peripheral blood components were separated using Ficoll Paque PLUS (Amersham Biosciences, Sweden) in LeucoSep tubes (Greiner Bio-One). The PBMC fraction was removed and thoroughly washed in ice-cold DPBS (Invitrogen), before magnetic labeling and separation of the NK cell population using positive or negative NK cell isolation kits and MACS LS columns (Miltenyi Biotec). The purity of the obtained NK cell fractions was analyzed using flow cytometry, after staining with α-CD56 antibodies (BD Biosciences). Target cells were harvested, and incubated in medium with or without the respective antibodies (2 μg/mL) for 60 min on ice. Cells were thereafter washed and resuspended in cold medium before dispension into FACS tubes. Subsequently, isolated NK cells were diluted in ADCC medium and dispensed together with the respective antibody-coated target cells at varying effector/target cell ratios (40:1, 20:1, 5:1 and 1:1). All experiments were performed in triplicates. After completed incubation ToPo-Pro-3 dye and counting beads (Invitrogen) were added and cells were analyzed for membrane permeabilization using flow cytometry.

Daudi lymphoma cells = assay: Programmed cell death (PCD) assay, Daudi cells; type: cell-based
Protocol: (§3) Target cells were seeded in 96-well culture plates at a density of 2×10^6 cells/mL culture medium. Titrated concentrations of IgG1 B11 or different negative and positive control antibodies were added to the cells, in the absence or presence of anti-human Fab fragment (Jackson ImmunoResearch) for cross-linking. The cells were then incubated for 16 hours at 37° C. in a humidified atmosphere of 5% CO2. The cells were harvested and stained for Annexin V-488/Propidium Iodide (Invitrogen, Sweden) and analysed using flow cytometer (FACS Calibur, BD Bioscience).

[2] = tested on: HUVEC and HMVEC endothelial cells; assay: PCD in normal ICAM-1 expressing endothelial cells; type: cell-based; details: resting or activated HUVEC/HMVEC
Protocol: as §3

[3] = tested on: HUVEC, HMVEC or peripheral blood B cells; assay: CDC of normal ICAM-1 expressing cells; type: cell-based
Protocol: Target cells were harvested and incubated in RPMI medium with antibodies at 5 μg/mL or at titrated concentrations between 0.01-100 μg/mL for 60 min on ice. Cells were thereafter washed and resuspended in cold medium before dispension into flow cytometry tubes. Treatments were performed in triplicates. Human serum, normal or heat-inactivated, (Sigma, Sweden) was added to tubes and the samples were incubated for 2 h at 37° C. After completed incubation ToPo-Pro-3 was added at a final concentration of 0.3 μM and cells were analyzed for membrane permeabilization using flow cytometry.

PBMC [4] = assay: PBMC cytokine release; type: cell-based
Text: (§4) We next assessed IgG B11 effects on PBMC cytokine release and cell proliferation. In order to maximize chances of identifying any PBMC agonistic properties of IgG B11, we used two different antibody coating-protocols where antibody is hyper-cross-linked as previously described (62).

PBMC [5] = assay: PBMC / T cell proliferation; type: cell-based; details: immobilised antibody or in solution
Text: as §4

ARH-77 xenograft tissues = details: compared to control IgG, untreated and rituximab-treated mice
Protocol: (§5) (A) ARH-77 cells were injected subcutaneously into the left flank of SCID mice (n=8 per group). Mice were treated with the different B11 isotypes twice weekly. […] Statistical significance was calculated relative to control antibody treatment using Kruskal-Wallis Test (Nonparametric ANOVA) with Dunn's Multiple Comparisons Test. Statistical significance was considered for *p<0.05, **p<0.01, and ***p<0.001.

ARH-77 tumors = assay: Advanced (established, palpable tumors) scid/ARH-77 xenograft model; details: IgG B11 effective even at 100-fold lower dose (0.2 mg/kg) than rituximab
Protocol: Mice were anaesthetized with a mixture of sevofluran and oxygen prior to myeloma cell inoculation and 1-5×10^6 myeloma cells were then subcutaneously injected in a volume of 100 μl into the left flank. Treatment with antibodies by intraperitonial (i.p.) injections was started either the day after cell inoculation (prophylactic model) or when tumors reached a size of approximately 100 mm^3 (established model). Antibodies were administrated in PBS in a total volume of 200 μL. Treatment with PBS or isotype control was used as control. Tumors were measured with a digital calliper and the tumor volumes were calculated according to formula: width^2×length×0.52. Animals were sacrificed when the tumor sizes reached the ethical limit of 1.5 cm. Surviving mice were sacrificed after a maximum of 5 months. Blood samples collected from the vena cava were centrifuged at 2500 g for 15 min to obtain serum and the samples were stored at −20° C. Tumors were removed for immunohistochemistry, snap frozen and were kept at −85° C.

ARH-77 cells = assay: Subcutaneous scid/ARH-77 xenograft, treatment from the day after cell inoculation (prophylactic model)
Protocol: Tumor cells were injected subcutaneously into the left flank of SCID mice. Mice received twice-weekly intraperitoneal injections with B11, control antibody or rituximab at doses of 20, 2 and/or 0.2 mg/kg commencing one day after tumor cell inoculation. There were 8 to 10 animals per treatment group. (A) Tumor volume as a function of antibody dose. (B) Kaplan-Meier survival graph as a function of antibody dose. […] Statistical significance was calculated relative to control antibody treatment using Kruskal-Wallis Test (Nonparametric ANOVA) with Dunn's Multiple Comparisons Test (tumor volume) or the log-rank test (mouse survival) using Graphpad Instat or Prism software, respectively. Statistical significance was considered for *p<0.05, **p<0.01, and ***p<0.001.
Tumor cells were injected subcutaneously into the left flank of SCID mice. Mice received twice-weekly intraperitoneal injections with B11 at doses of 0.02-20 mg/kg commencing day after tumor cell inoculation. There were 8-10 animals per treatment group. (A) Tumor volume as a function of antibody dose. (B) Kaplan-Meier survival graph as a function of antibody dose. Statistical significance was calculated relative to control antibody treatment using Kruskal-Wallis Test (Nonparametric ANOVA) with Dunn's Multiple Comparisons Test (tumor volume) or the log-rank test (mouse survival) using Graphpad Instat or Prism software, respectively. Statistical significance was considered for *p<0.05, **p<0.01, and ***p<0.001. Graphs illustrate representative experiments out of several performed.
as §5
Mice were anaesthetized with a mixture of sevofluran and oxygen prior to myeloma cell inoculation and 1-5×10^6 myeloma cells were then subcutaneously injected in a volume of 100 μl into the left flank. Treatment with antibodies by intraperitonial (i.p.) injections was started either the day after cell inoculation (prophylactic model) or when tumors reached a size of approximately 100 mm^3 (established model).

B1: IgG B11: novel human ICAM-1 antibody targeting the B11 epitope, isolated from the naïve antibody library n-CoDeR (antibody, V domains shown)
VH: EVQLLESGGGLVQPGGSLRLSCAASGFTFSNAWMSWVRQAPGKGLEWVAFIWYDGSNKYYADSVKGRFTISRDNSKNTLYLQMNSLRAEDTAVYYCARYSGWYFDYWGQGTLVTVSS
VL: QSVLTQPPSASGTPGQRVTISCTGSSSNIGAGYDVHWYQQLPGTAPKLLIYDNNNRPSGVPDRFSGSKSGTSASLAISGLRSEDEADYYCQSYDSSLSAWLFGGGTKLTVLG
modifications: B11 antibody variable H region; B11 antibody variable L region
- survival of tumor bearing mice (Daudi cells): prolonged survival of tumor bearing mice
- tumor growth (Daudi cells): significantly and equally efficaciously compared to rituximab, prevented tumor growth
- reduction of myeloma tumor growth (RPMI-8226 myeloma cells): 96%
- reduction of myeloma tumor growth (NCI-H929 myeloma cells): 99%
- effect on tumor growth (OPM-2 myeloma cells): no effect on tumor growth; also recorded: did not affect tumor growth
- binding to murine FcγRIV (mouse FcγRIV): strong binding
- binding to human FcγRIIIa (human FcγRIIIa): bound to human FcγRIIIa
- ADCC of target tumor cells ([1]; listed as B11): mediated FcγRIIIA-dependent ADCC
- ADCC of target tumor cells ([1]; listed as IgG B11 IgG1): mediated ADCC of target tumor cells
- PCD-induction (Daudi lymphoma cells; ICAM-1 expressing Daudi lymphoma cells): dose dependent PCD-induction
- programmed cell death by immobilised antibody (Daudi lymphoma cells; antibody immobilised by either coating protocol, data not shown): induced programmed cell death
- programmed cell death of normal endothelial cells [2]: did not, however, induce PCD
- CDC of normal cells [3]: did not confer ADCC or CDC
- CDC of normal cells ([3]; listed as B11): not significantly affected
- PBMC cytokine release (PBMC [4]; antibody in solution, resting or lipopolysaccharide pre-stimulated PBMCs): did not induce or enhance cytokine release
- PBMC cytokine release (PBMC [4]; immobilised antibody, or in solution with or without cross-linking reagent): did not, however, induce PBMC cytokine release
- PBMC cytokine release (PBMC [4]; immobilised antibody, or in solution with or without cross-linking reagent, listed as B11): not significantly affected
- cell proliferation (PBMC [5]): did not induce cell proliferation
- cell proliferation (PBMC [5]; listed as B11): not significantly affected
- F4/80 positive host effector cell (macrophage) infiltration of tumor tissue (ARH-77 xenograft tissues): massive influx
- F4/80 positive host effector cell (macrophage) infiltration of tumor tissue (ARH-77 xenograft tissues; listed as B11): significantly increased
- animal survival (ARH-77 tumors): prolonged animal survival
- tumor growth (ARH-77 tumors): significantly prevented tumor growth
- tumor growth (ARH-77 cells; 20 mg/kg twice weekly i.p., commencing one day after tumor cell inoculation): completely prevent tumor-growth
- anti-tumor activity in dose-titration experiment (ARH-77 cells; B11 0.02-20 mg/kg twice weekly i.p.): peaked at the 2 mg/kg dose and remained near maximal at a dose of 0.2 mg/kg
- survival (ARH-77 cells; IgG B11 at 2 mg/kg, ten-fold lower dose than rituximab): complete survival
- anti-tumor activities of IgG B11 isotype switch variants (rank order) (ARH-77 cells; twice weekly treatment, s.c. ARH-77): increased in the order of IgG1N297Q<IgG4<IgG1
